# Measurements published in PMC5191963 (Hepatology (Baltimore, Md.), 2016).
# Numbering of substitutions follows the chain as printed. Names and notes keep the numbering of the source. Read-outs that look alike come from different tables or passages of the source.
# B1: Recombinant HMGB1 (disulfide HMGB1, not treated with DTT) (natural protein, human, UniProt P09429 1-215, looked up)
# chain: MGKGDPKKPRGKMSSYAFFVQTCREEHKKKHPDASVNFSEFSKKCSERWKTMSAKEKGKFEDMAKADKARYEREMKTYIPPKGETKKKFKDPNAPKRPPSAFFLFCSEYRPKIKGEHPGLSIGDVAKKLGEMWNNTAADDKQPYEKKAAKLKEKYEKDIAAYRAKGKPDAAKKGVVKAEKSKKKKEEEEDEEDEEDEEEEEDEEDEDEEEDDDDE
# modifications: disulfide bond between cysteines 23 and 45 (the paper calls the protein without DTT disulfide HMGB1)
# B2: Recombinant HMGB1, fully reduced all-thiol form (5 mM DTT) (natural protein, human, UniProt P09429 1-215, looked up)
# chain: B1 chain
# B3: Recombinant HMGB1(C45S) (natural protein, human, UniProt P09429 1-215, looked up)
# chain: B1 chain with C45S
# B4: Recombinant HMGB1(C23S) (natural protein, human, UniProt P09429 1-215, looked up)
# chain: B1 chain with C23S
# B5: Recombinant HMGB1 A box (disulfide form, not treated with DTT) (domain or fragment)
# chain: MGKGDPKKPRGKMSSYAFFVQTCREEHKKKHPDASVNFSEFSKKCSERWKTMSAKEKGKFEDMAKADKARYEREMKTYI
# modifications: disulfide form (the paper calls the A box without DTT its disulfide form)
# Tests used:
# Experiment in all cases: BLI
# [1] = molecular target: T1, GST-tagged AIM2 (Invitrogen) (UniProt O14862 1-343)
# T1 sequence (looked up): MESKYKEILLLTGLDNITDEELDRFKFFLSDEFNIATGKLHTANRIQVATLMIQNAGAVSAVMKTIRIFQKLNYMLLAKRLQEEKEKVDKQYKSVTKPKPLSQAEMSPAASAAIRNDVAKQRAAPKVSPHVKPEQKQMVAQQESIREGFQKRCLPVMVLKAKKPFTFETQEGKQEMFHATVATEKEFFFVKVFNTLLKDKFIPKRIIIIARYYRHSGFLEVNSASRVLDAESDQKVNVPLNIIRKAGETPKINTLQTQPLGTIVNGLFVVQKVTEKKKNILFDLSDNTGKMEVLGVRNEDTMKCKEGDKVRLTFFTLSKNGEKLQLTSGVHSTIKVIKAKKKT
# [2] = molecular target: T1, GST-tagged AIM2 (Invitrogen); remark: listed apart in the source
# [3] = molecular target: T1, GST-tagged AIM2 (Invitrogen); remark: listed apart in the source
# [4] = molecular target: T1, GST-tagged AIM2 (Invitrogen); remark: listed apart in the source
# [5] = molecular target: T1, GST-tagged AIM2 (Invitrogen); remark: listed apart in the source
Binder,Kd [3] [nM],koff [3] [s⁻¹],kon [3] [M⁻¹ s⁻¹],also measured
B1,23,0.00034,14000,Kd [1]: 8 nM; koff [1]: 0.00014 s⁻¹; kon [1]: 17000 M⁻¹ s⁻¹; Kd [2]: 25 nM; koff [2]: 0.00033 s⁻¹; kon [2]: 13000 M⁻¹ s⁻¹; Kd [4]: 20 nM; koff [4]: 0.00034 s⁻¹; kon [4]: 17000 M⁻¹ s⁻¹
B2,,,,Kd [5]: 13 nM; koff [5]: 0.00038 s⁻¹; kon [5]: 30000 M⁻¹ s⁻¹
B3,13,0.00036,27000,
B4,12,0.0003,25000,
B5,41,0.00261,64000,
